From article PMC7683346

Target: FFAR4-NanoLuc (UniProt Q5NUL3)
Experiment: FRET or BRET

Chain of UniProt Q5NUL3 (Q5NUL3 whole entry): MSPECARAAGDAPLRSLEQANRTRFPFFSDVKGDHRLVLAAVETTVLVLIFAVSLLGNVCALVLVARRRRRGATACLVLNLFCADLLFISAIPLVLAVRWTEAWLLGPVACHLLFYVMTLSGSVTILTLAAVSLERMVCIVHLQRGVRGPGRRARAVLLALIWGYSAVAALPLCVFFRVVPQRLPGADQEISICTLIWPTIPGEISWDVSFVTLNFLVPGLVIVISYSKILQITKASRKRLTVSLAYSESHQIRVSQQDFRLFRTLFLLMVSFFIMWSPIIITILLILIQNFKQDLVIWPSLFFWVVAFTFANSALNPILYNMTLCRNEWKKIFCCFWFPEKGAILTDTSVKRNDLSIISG

fold BRET signal against mini-Gαq [fold]	Substance
3	Venus-tagged mini-Gαo
3	Venus-tagged mini-Gαi
